Measurements: US20140234312A1 (Genentech, published 2014)

Key:
[1] = target: T1, hNrp2 (a1a2b1b2)-Fc fusion protein (human, UniProt O60462 23-595, limits assumed); assay: blocking ELISA: plate coated with human Nrp2 ECD (5 ug/ml), antibody pre-incubated, then biotinylated human VEGFC (1 nM), streptavidin-HRP; blocked ligand VEGFC
T1 construct: domain: a1a2b1b2; Expressed in CHO cells; The SPR text says only 'human Nrp2 (a1a2b1b2)', so it is not certain that the Fc fusion was the analyte there; also called hNrp2 ECD; human Nrp2 ECD; not shown: Fc part of the fusion
T1 sequence (looked up): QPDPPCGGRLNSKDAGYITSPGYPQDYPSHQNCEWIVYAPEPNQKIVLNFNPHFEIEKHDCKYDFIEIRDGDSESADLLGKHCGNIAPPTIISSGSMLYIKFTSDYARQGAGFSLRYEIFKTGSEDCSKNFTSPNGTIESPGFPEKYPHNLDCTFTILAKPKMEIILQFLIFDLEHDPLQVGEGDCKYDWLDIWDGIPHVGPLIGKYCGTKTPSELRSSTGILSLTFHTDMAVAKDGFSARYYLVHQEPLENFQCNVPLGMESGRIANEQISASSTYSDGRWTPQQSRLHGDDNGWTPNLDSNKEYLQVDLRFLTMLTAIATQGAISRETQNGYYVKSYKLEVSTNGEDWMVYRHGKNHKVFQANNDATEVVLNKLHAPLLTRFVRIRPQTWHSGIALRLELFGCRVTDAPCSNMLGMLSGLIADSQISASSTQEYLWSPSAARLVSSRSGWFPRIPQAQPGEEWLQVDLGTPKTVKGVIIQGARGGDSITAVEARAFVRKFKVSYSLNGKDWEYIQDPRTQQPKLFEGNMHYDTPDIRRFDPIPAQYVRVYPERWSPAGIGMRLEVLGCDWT
Method: FIG. 1. Characterization of Anti-Nrp2^B mAb. (A) Schematic representation of Sema and VEGF binding regions on Nrp2 relative to Anti-Nrp2^B epitope regions. […] (C) Blocking of VEGFC binding to Nrp2 by Anti-Nrp2^B. Increasing amounts of mAb was pre-incubated with plates coated with human Nrp2 ECD (5 μg/ml) for 1-2 hrs, followed by adding pre-titrated biotinylated human VEGFC (1 nM) for 15 min. The percentage of bound VEGFC was detected by streptavidin-HRP conjugates. (D) Blocking of VEGF₁₆₅ binding to Nrp2 by Anti-Nrp2^B. (E) Blocking of Sema3F binding to LECs. LEC were incubated with conditioned media containing Sema3F fused to alkaline phosphatase (AP) (REF), in the presence or absence of Anti-Nrp2^B. AP activity derived form bound Sema3F-AP was detected colorimetrically with same development times. […] Nrp2 ECD was used as a positive control for blocking binding (right panel). Scale bar
(§1) To evaluate blocking Nrp2 from binding VEGF, three-fold serial dilutions of anti-Nrp2^B IgGs were first incubated with 96-well Maxisorp plate coated NRP2-Fc (5 μg/ml) in PBST buffer for 2 hr, following by adding biotinylated VEGF₁₆₅ or VEGFC (full length) for 15 minutes. The amount of biotinylated VEGF binding to Nrp2 was detected by streptavidin-HRP conjugates.

[2] = target: T2, mNrp2 (a1a2b1b2)-His (mouse, UniProt O35375 23-595, limits assumed); assay: SPR (BIAcore-3000), human IgG1 captured on anti-human IgG CM5 chip, mouse Nrp2 (a1a2b1b2) injected 0.5-250 nM, 25 C, 1:1 Langmuir; murine Nrp2
T2 construct: domain: a1a2b1b2; Expressed in CHO cells; also called mouse Nrp2 (a1a2b1b2); murine Nrp2; not shown: His tag
T2 sequence (looked up): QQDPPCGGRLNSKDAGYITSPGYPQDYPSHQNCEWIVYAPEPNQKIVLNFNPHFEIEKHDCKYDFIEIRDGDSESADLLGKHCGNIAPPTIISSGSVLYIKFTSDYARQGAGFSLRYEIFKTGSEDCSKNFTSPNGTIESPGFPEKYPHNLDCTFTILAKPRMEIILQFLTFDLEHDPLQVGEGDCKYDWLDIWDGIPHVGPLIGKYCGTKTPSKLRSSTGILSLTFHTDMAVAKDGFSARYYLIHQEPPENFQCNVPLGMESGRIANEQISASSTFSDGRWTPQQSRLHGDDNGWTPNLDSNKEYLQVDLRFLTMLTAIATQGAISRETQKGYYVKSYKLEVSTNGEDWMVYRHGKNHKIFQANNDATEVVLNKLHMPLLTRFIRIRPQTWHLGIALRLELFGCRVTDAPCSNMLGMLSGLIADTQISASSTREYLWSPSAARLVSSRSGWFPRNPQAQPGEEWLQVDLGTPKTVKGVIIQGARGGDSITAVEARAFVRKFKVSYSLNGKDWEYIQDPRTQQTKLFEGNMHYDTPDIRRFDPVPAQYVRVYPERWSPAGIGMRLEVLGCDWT
Method: (§2) To determine binding affinities of anti-Nrp2^B IgG1 antibodies, surface plasmon resonance (SRP) measurement with a BIAcore™-3000 instrument was used. First of all, anti-Nrp2^B human IgGs were captured by CM5 biosensor chips coated rabbit anti-human IgG to achieve approximately 200 response units (RU). For kinetics measurements, two-fold serial dilutions of mouse or human Nrp2 (a1a2b1b2) (0.5 nM to 250 nM) were injected separately in PBT buffer (PBS with 0.05% (v/v) Tween 20) at 25° C. with a flow rate of 30 μl/min. Association rates (kₒₙ) and dissociation rates (koff) were calculated using a simple one-to-one Langmuir binding model (BIAcore Evaluation Software version 3.2). The equilibrium dissociation constant (KD) was calculated as the ratio koff/kₒₙ.

[3] = target: T1, hNrp2 (a1a2b1b2)-Fc fusion protein; assay: competition ELISA: antibody titrated on plate-coated NRP2-Fc (5 ug/ml), competitor biotinylated VEGF165, streptavidin-HRP; blocking of VEGF165 binding
Method: as §1

[4] = target: T1, hNrp2 (a1a2b1b2)-Fc fusion protein; assay: SPR (BIAcore-3000), human IgG1 captured on anti-human IgG CM5 chip, human Nrp2 (a1a2b1b2) injected 0.5-250 nM, 25 C, 1:1 Langmuir; human Nrp2
Method: as §2

[5] = target: T3, A1-A2 domains of hNrp2 (human, UniProt O60462 23-270, limits assumed); assay: ELISA on antigen-coated plate, Anti-Nrp2^B IgG titrated, anti-human HRP detection, OD450
T3 construct: domain: A1-A2; also called CUB (a1-a2) domains of human Nrp2
T3 sequence (looked up): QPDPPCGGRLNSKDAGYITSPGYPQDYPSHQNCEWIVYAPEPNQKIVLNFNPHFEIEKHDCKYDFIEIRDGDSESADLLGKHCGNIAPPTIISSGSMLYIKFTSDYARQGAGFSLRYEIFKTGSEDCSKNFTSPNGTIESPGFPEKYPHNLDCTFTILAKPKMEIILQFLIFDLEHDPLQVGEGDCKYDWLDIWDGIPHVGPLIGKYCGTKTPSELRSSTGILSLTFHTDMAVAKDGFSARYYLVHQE
Method: (§3) For ELISA-based binding specificity tests, three-fold serial dilutions of Anti-Nrp2^B IgGs (0.002 nM to 500 nM) in PBST buffer (PBT buffer with 0.5% (w/v) BSA) were incubated with 1 μg/ml antigen-coated 96-well Maxisorp plates for at least 1 hr, and the plates were washed with PBT buffer. Bound antibodies were detected with anti-human antibody HRP conjugates diluted 1:2500 in PBST buffer, developed with TMB substrate for approximately 5 minutes, quenched with 1M H₃PO₄, and read spectrophotometrically at 450 nm.

[6] = target: T4, hNrp1 ECD (human, UniProt O14786 22-856); assay: as above
T4 construct: extracellular domain
T4 sequence (looked up): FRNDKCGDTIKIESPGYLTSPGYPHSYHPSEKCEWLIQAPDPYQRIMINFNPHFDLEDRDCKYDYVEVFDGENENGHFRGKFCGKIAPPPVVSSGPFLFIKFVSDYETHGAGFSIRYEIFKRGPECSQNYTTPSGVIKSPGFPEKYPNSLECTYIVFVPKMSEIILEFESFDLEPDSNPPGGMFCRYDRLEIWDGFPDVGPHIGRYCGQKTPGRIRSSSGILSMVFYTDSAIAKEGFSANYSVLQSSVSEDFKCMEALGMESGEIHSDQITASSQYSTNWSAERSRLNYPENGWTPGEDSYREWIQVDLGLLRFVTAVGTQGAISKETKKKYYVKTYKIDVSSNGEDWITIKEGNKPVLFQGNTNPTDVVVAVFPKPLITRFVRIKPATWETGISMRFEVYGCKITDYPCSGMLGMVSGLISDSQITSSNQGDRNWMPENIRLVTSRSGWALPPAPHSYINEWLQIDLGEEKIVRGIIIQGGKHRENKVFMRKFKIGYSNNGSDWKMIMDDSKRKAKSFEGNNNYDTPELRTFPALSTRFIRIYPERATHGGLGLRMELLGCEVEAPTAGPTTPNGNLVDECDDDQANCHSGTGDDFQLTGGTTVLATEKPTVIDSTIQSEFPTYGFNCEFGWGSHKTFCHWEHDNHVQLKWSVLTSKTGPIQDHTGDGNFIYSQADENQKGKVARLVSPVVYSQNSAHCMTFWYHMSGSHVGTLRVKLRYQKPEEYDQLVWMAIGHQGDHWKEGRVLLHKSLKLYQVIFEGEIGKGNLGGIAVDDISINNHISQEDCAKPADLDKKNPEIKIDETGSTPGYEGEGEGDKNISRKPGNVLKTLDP
Method: as §3

[7] = target: T1, hNrp2 (a1a2b1b2)-Fc fusion protein; assay: as above
Method: as §3

[8] = target: T5, hNrp2 (b1b2) (human, UniProt O60462 275-595, limits assumed); assay: as above
T5 construct: domain: b1b2; Expressed in insect cells; also called B1-B2 domains of hNrp2; b1-b2 domains of human Nrp2
T5 sequence (looked up): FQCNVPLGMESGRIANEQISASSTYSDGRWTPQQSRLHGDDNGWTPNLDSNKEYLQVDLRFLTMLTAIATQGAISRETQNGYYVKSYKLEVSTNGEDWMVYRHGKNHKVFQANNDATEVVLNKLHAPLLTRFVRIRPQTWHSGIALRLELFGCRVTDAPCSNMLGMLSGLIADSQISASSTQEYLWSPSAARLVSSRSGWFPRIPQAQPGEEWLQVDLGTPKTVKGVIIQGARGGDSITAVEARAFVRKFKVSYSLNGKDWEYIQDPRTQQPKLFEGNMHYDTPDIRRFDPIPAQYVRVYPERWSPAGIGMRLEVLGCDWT
Method: as §3

B1: anti-Nrp2^B antibody YW68.4.2.36 (antibody, V domains shown)
VH: EVQLVESGGGLVQPGGSLRLSCAASGFTITSSGIHWVRQAPGKGLEWVARITPYDGSTDYADSVKGRFTISADTSKNTAYLQMNSLRAEDTAVYYCARYRGRLLFDYWGQGTLVTVSS
VL: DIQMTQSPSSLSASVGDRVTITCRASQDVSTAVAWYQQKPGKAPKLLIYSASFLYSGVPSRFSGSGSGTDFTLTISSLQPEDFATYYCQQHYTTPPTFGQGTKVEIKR
notes: Phage-derived human synthetic antibody; Human IgG1 was used in SPR and ELISA; also called Anti-Nrp2^B mAb; anti-Nrp2^B IgG1
- IC50 (read off the curve) [1]: ~0.1 nM
- Kd [2]: 4.9 nM
- IC50 [3]: 0.1 nM
- Kd [4]: 5.3 nM
- binding result [5]: no binding (tested: 500 nM)
- binding result [6]: no binding (tested: 500 nM)
- EC50 (read off the curve) [7]: ~0.2 nM
- EC50 (read off the curve) [8]: ~0.3 nM
